Test results from patent US20030068675, “Position dependent recognition of GNN nucleotide triplets by zinc fingers” (published 2003).
Changes are numbered by the printed parent chain.

Key:
Test in all cases: EMSA
Details in all cases: tags: MBP fusion
ZFP SBS#929 = biological target: T1, ZFP SBS#929 (synthetic)
T1 chain: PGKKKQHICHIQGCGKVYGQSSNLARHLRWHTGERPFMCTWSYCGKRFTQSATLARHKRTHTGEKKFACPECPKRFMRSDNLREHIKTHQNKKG
Method in brief: (§1)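 Purified ZFP was titrated against labeled double-stranded target (1 nM or lower, at least 10-fold below expected Kd) carrying the natural binding site with flanks. Binding buffer was 10 mM Tris pH 7.5, 100 mM KCl, 1 mM MgCl2, 0.1 mM ZnCl2, 5 mM DTT, 10% glycerol, 0.02% BSA, with equilibration for at least 45 min. Bound and free target were separated on a 10% polyacrylamide gel.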

ZFP SBS#931 = ZFP SBS#931 (synthetic)
Method in brief: as §1

ZFP SBS#916 = ZFP SBS#916 (synthetic)
Method in brief: as §1

ZFP SBS#932 = biological target: T2, ZFP SBS#932 (synthetic)
T2 chain: T1 chain with Q20R, S22D, N23H, A52S, T53N, A55V, N81A, E84Q
Method in brief: as §1

ZFP SBS#903 = ZFP SBS#903 (synthetic)
Method in brief: as §1

ZFP SBS#934 = ZFP SBS#934 (synthetic)
Method in brief: as §1

ZFP SBS#910 = ZFP SBS#910 (synthetic)
Method in brief: as §1

ZFP SBS#928 = biological target: T3, ZFP SBS#928 (synthetic)
T3 chain: T1 chain with Q20R, S22D, A52S, T53A, A55T
Method in brief: as §1

ZFP SBS#927 = biological target: T4, ZFP SBS#927 (synthetic)
T4 chain: T1 chain with Q20R, S22D, Q50T, A52G, T53S, A55T
Method in brief: as §1

ZFP SBS#781 = ZFP SBS#781 (synthetic, UniProt P08047)
Method in brief: as §1

ZFP SBS#256 = biological target: T5, ZFP SBS#256 (synthetic)
T5 chain: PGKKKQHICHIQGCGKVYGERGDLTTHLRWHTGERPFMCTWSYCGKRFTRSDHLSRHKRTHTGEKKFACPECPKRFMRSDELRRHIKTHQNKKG
Method in brief: as §1

ZFP SBS#904 = ZFP SBS#904 (synthetic)
Method in brief: as §1

ZFP SBS#963 = ZFP SBS#963 (synthetic)
Method in brief: as §1

ZFP SBS#962 = ZFP SBS#962 (synthetic, UniProt P08047)
Method in brief: as §1

ZFP SBS#787 = biological target: T6, ZFP SBS#787 (synthetic)
T6 chain: T1 chain with S22D, Q50R, A52D, T53N, N81H, R83T, E84Q
Method in brief: as §1

ZFP SBS#912 = biological target: T7, ZFP SBS#912 (synthetic)
T7 chain: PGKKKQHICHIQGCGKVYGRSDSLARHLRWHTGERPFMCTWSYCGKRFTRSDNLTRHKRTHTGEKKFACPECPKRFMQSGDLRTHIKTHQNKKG
Method in brief: as §1

ZFP SBS#431 = biological target: T8, ZFP SBS#431 (synthetic)
T8 chain: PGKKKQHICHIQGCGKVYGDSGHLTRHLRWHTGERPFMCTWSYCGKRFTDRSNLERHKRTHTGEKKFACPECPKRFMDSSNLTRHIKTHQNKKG
Method in brief: as §1

ZFP SBS#920 = ZFP SBS#920 (synthetic)
Method in brief: as §1

ZFP SBS#826 = biological target: T9, ZFP SBS#826 (synthetic)
T9 chain: T1 chain with Q20R, S22D, N23E, A25T, A52G, T53H, R83A, E84R
Method in brief: as §1

ZFP SBS#827 = biological target: T10, ZFP SBS#827 (synthetic)
T10 chain: T1 chain with Q20R, S21A, S22D, N23T, A25R, A52G, T53H, R83A, E84R
Method in brief: as §1

ZFP SBS#750 = ZFP SBS#750 (synthetic)
Method in brief: as §1

ZFP SBS#911 = ZFP SBS#911 (synthetic)
Method in brief: as §1

ZFP SBS#935 = ZFP SBS#935 (synthetic)
Method in brief: as §1

ZFP SBS#914 = ZFP SBS#914 (synthetic)
Method in brief: as §1

ZFP SBS#915 = ZFP SBS#915 (synthetic)
Method in brief: as §1

ZFP SBS#921 = ZFP SBS#921 (synthetic)
Method in brief: as §1

ZFP SBS#908 = biological target: T11, ZFP SBS#908 (synthetic)
T11 chain: T1 chain with S22G, N23D, A25R, R26T, Q50D, S51R, A52S, T53A, E84Q
Method in brief: as §1

ZFP SBS#922 = biological target: T12, ZFP SBS#922 (synthetic)
T12 chain: T1 chain with S22H, N23D, A25T, R26K, Q50D, S51R, A52S, T53A, E84Q
Method in brief: as §1

ZFP SBS#923 = ZFP SBS#923 (synthetic)
Method in brief: as §1

ZFP SBS#785 = ZFP SBS#785 (synthetic)
Method in brief: as §1

ZFP SBS#786 = ZFP SBS#786 (synthetic)
Method in brief: as §1

ZFP SBS#783 = ZFP SBS#783 (synthetic)
Method in brief: as §1

ZFP SBS#933 = biological target: T13, ZFP SBS#933 (synthetic)
T13 chain: T8 chain with D20Q, G22A, H23N, T25A, D50R, R51S, S52D, E55A, S79R
Method in brief: as §1

ZFP SBS#948 = ZFP SBS#948 (synthetic)
Method in brief: as §1

ZFP SBS#946 = biological target: T14, ZFP SBS#946 (synthetic)
T14 chain: T7 chain with A25T, N53V, T55Q, Q78M, G80H, D81H, R83S, T84R
Method in brief: as §1

ZFP SBS#947 = ZFP SBS#947 (synthetic)
Method in brief: as §1

ZFP SBS#945 = biological target: T15, ZFP SBS#945 (synthetic)
T15 chain: T7 chain with A25T, S51A, N53T, T55R, Q78M, G80H, D81H, R83S, T84R
Method in brief: as §1

ZFP SBS#909 = ZFP SBS#909 (synthetic)
Method in brief: as §1

ZFP SBS#926 = biological target: T16, ZFP SBS#926 (synthetic)
T16 chain: T5 chain with E20R, R21S, G22D, D23A, T26R, H53S, S55A, E81S, R83A
Method in brief: as §1

ZFP SBS#905 = biological target: T17, ZFP SBS#905 (synthetic)
T17 chain: T5 chain with E20R, R21S, G22S, D23A, T26R, H53S, S55A, E81S, R83A
Method in brief: as §1

Sequence of ZFP SBS#909 (synthetic) (chain, as listed by the source): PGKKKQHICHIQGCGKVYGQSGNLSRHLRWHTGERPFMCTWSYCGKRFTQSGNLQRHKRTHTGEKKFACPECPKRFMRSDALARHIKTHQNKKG
Sequence of ZFP SBS#916 (synthetic) (chain, as listed by the source): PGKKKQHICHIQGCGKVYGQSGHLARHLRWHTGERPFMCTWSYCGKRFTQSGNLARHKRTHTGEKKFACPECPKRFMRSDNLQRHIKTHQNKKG
Sequence of ZFP SBS#903 (synthetic) (chain, as listed by the source): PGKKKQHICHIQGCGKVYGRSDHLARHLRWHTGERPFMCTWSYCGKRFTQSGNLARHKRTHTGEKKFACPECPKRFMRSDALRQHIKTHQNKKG
Sequence of ZFP SBS#914 (synthetic) (chain, as listed by the source): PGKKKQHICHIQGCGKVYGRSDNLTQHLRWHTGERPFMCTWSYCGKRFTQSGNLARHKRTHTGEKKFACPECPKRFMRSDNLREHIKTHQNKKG
Sequence of ZFP SBS#915 (synthetic) (chain, as listed by the source): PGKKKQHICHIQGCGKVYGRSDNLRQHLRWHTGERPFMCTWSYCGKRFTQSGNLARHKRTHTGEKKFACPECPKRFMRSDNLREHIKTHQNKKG
Sequence of ZFP SBS#934 (synthetic) (chain, as listed by the source): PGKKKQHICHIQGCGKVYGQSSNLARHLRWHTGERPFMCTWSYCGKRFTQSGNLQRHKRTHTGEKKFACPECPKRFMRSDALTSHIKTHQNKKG
Sequence of ZFP SBS#921 (synthetic) (chain, as listed by the source): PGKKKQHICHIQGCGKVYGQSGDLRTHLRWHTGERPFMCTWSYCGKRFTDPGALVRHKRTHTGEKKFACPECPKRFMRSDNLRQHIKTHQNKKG
Sequence of ZFP SBS#948 (synthetic) (chain, as listed by the source): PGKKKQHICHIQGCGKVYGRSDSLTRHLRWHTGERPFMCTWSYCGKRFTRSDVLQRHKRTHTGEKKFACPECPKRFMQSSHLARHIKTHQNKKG
Sequence of ZFP SBS#785 (synthetic) (chain, as listed by the source): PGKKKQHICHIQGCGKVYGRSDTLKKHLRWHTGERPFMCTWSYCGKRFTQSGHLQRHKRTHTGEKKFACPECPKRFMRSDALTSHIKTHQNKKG
Sequence of ZFP SBS#923 (synthetic) (chain, as listed by the source): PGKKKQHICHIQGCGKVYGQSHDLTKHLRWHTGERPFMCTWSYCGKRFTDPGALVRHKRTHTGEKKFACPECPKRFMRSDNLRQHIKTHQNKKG
Sequence of ZFP SBS#947 (synthetic) (chain, as listed by the source): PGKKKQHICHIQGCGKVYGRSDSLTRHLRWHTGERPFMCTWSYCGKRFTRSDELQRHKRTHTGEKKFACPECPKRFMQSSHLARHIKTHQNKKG
Sequence of ZFP SBS#904 (synthetic) (chain, as listed by the source): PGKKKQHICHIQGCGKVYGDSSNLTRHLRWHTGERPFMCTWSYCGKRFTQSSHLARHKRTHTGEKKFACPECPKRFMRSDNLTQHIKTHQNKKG
Sequence of ZFP SBS#910 (synthetic) (chain, as listed by the source): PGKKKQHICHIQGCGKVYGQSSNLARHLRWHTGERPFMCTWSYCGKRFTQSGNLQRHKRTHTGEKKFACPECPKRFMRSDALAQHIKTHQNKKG
Sequence of ZFP SBS#920 (synthetic) (chain, as listed by the source): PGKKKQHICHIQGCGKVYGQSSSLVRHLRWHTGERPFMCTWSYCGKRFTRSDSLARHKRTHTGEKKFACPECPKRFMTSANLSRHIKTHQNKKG
Sequence of ZFP SBS#962 (P08047 other isoform, or with tags, fused parts or gaps): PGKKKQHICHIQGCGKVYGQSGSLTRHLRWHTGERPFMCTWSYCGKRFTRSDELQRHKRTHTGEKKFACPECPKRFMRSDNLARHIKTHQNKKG
Sequence of ZFP SBS#911 (synthetic) (chain, as listed by the source): as the sequence (P08047 other isoform, or with tags, fused parts or gaps) above, with R50Q, D52S, E53H, Q55A, N81A, R84Q counted along it
Sequence of ZFP SBS#931 (synthetic) (chain, as listed by the source): as the sequence (P08047 other isoform, or with tags, fused parts or gaps) above, with Q20R, G22D, S23N, T25A, R50Q, D52S, E53N, Q55V counted along it
Sequence of ZFP SBS#786 (synthetic) (chain, as listed by the source): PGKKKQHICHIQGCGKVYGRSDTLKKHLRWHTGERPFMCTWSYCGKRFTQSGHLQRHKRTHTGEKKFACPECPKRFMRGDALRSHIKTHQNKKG

B1: CAGGTAGAT (dsDNA)
DNA 1: CAGGTAGAT
DNA 2: ATCTACCTG
For B1, the Kd (ZFP SBS#929) was 1.3 nM.

B2: GAGGAAGAG (dsDNA)
DNA 1: GAGGAAGAG
DNA 2: CTCTTCCTC
With B2 the Kd (ZFP SBS#931) was 2 nM.

B3: GAGGAAGGA (dsDNA)
DNA 1: GAGGAAGGA
DNA 2: TCCTTCCTC
B3 showed a Kd (ZFP SBS#916) of 1.3 nM.

B4: ATGGAAGGG (dsDNA)
DNA 1: ATGGAAGGG
DNA 2: CCCTTCCAT
Work on B4 yielded a Kd (ZFP SBS#932) of 797 nM and a Kd (ZFP SBS#903) of 1.03 nM.

B5: ATGGAAGAT (dsDNA)
DNA 1: ATGGAAGAT
DNA 2: ATCTTCCAT
B5 showed a Kd (ZFP SBS#934) of 0.07 nM and a Kd (ZFP SBS#910) of 0.03 nM.

B6: CAGGTTGAG (dsDNA)
DNA 1: CAGGTTGAG
DNA 2: CTCAACCTG
For B6, the Kd (ZFP SBS#928) was 25 nM and the Kd (ZFP SBS#927) was 3.61 nM.

B7: GGGGAGCAGC (dsDNA)
DNA 1: GGGGAGCAGC
DNA 2: GCTGCTCCCC
B7 showed a Kd (ZFP SBS#781) of 4.25 nM.

B8: GCGGGGTCC (dsDNA)
DNA 1: GCGGGGTCC
DNA 2: GGACCCCGC
Binder B8 has a Kd (ZFP SBS#256) of 800 nM.

B9: AAGGGTGAC (dsDNA)
DNA 1: AAGGGTGAC
DNA 2: GTCACCCTT
B9 was tested, and the Kd (ZFP SBS#904) was 1 nM.

B10: GAGGCGGCA (dsDNA)
DNA 1: GAGGCGGCA
DNA 2: TGCCGCCTC
Binder B10 has a Kd (ZFP SBS#963) of 0.015 nM and a Kd (ZFP SBS#962) of 0.015 nM.

B11: AGGGAGGATG (dsDNA)
DNA 1: AGGGAGGATG
DNA 2: CATCCTCCCT
In the case of B11, the Kd (ZFP SBS#787) is reported as 4 nM.

B12: TCAGAGGTG (dsDNA)
DNA 1: TCAGAGGTG
DNA 2: CACCTCTGA
B12 was tested, and the Kd (ZFP SBS#912) was 0.135 nM.

B13: GACGACGGC (dsDNA)
DNA 1: GACGACGGC
DNA 2: GCCGTCGTC
Work on B13 yielded a Kd (ZFP SBS#431) of 100 nM.

B14: GATGTGGTA (dsDNA)
DNA 1: GATGTGGTA
DNA 2: TACCACATC
B14 showed a Kd (ZFP SBS#920) of 4 nM.

B15: GAGGGAGCGA (dsDNA)
DNA 1: GAGGGAGCGA
DNA 2: TCGCTCCCTC
Binder B15 has a Kd (ZFP SBS#826) of 2.75 nM, a Kd (ZFP SBS#827) of 1.2 nM and a Kd (ZFP SBS#750) of 52 nM.

B16: ATGGGTGCA (dsDNA)
DNA 1: ATGGGTGCA
DNA 2: TGCACCCAT
B16 gave a Kd (ZFP SBS#911) of 0.91 nM and a Kd (ZFP SBS#935) of 0.91 nM.

B17: CAGGAAAAG (dsDNA)
DNA 1: CAGGAAAAG
DNA 2: CTTTTCCTG
Work on B17 yielded a Kd (ZFP SBS#914) of 1.26 nM and a Kd (ZFP SBS#915) of 45.1 nM.

B18: AAGGTCTCA (dsDNA)
DNA 1: AAGGTCTCA
DNA 2: TGAGACCTT
For B18, the Kd (ZFP SBS#921) was 11 nM, the Kd (ZFP SBS#908) was 50 nM and the Kd (ZFP SBS#922) was 4 nM. For the same binder, the Kd (ZFP SBS#923) was 2 nM.

B19: TTGGGAGCGG (dsDNA)
DNA 1: TTGGGAGCGG
DNA 2: CCGCTCCCAA
In the case of B19, the Kd (ZFP SBS#785) is reported as 50 nM, the Kd (ZFP SBS#786) is reported as 2000 nM and the Kd (ZFP SBS#783) is reported as 2000 nM.

B20: GACGAGGAA (dsDNA)
DNA 1: GACGAGGAA
DNA 2: TTCCTCGTC
B20 was tested, and the Kd (ZFP SBS#933) was 500 nM.

B21: GGTGCGGTG (dsDNA)
DNA 1: GGTGCGGTG
DNA 2: CACCGCACC
With B21 the Kd (ZFP SBS#948) was 0.017 nM, the Kd (ZFP SBS#946) was 0.027 nM and the Kd (ZFP SBS#947) was 0.013 nM. The Kd (ZFP SBS#945) was 0.027 nM.

B22: GTGGAAGAA (dsDNA)
DNA 1: GTGGAAGAA
DNA 2: TTCTTCCAC
In the case of B22, the Kd (ZFP SBS#909) is reported as 16.4 nM.

B23: GTGGTGGTG (dsDNA)
DNA 1: GTGGTGGTG
DNA 2: CACCACCAC
B23 was tested, and the Kd (ZFP SBS#926) was 7.5 nM and the Kd (ZFP SBS#905) was 1.15 nM.
